This note sets out measurements from the supplement of paper PMC12042874.

± gives the uncertainty stated by the source.

The data set in a line: amyloid nucleation score (Sup35N fusion, yeast selection) (log enrichment); library NNK3; higher = more nucleation; inactive = no reads after selection. An outline of the steps:
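Using DiMSum, nucleation scores were taken as the log enrichment of output over input reads, centred on the mode score of non-aggregating sequences. The input and output reads came from Illumina sequencing of plasmid inserts, with sequences under 100 input reads excluded. The yeast were psi-negative, expressed Sup35N fused to peptides of 20 random codons, were induced with 100 μM copper sulfate for 24 hours, and were grown 7 days at 30°C on medium lacking adenine and uracil.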

Turning to RWIFIT, the amyloid nucleation score result is “inactive”. The result for LNQLGSCY reads -0.019 ± 1.1. The same measure for RCSDWYHFTAQSS: “inactive”; for PNLMLPCTSGRELMKVSNVL: “inactive”; for AIMLVSLC: “inactive”. The same measure for ILHHTWYMF: “inactive”; for ALVVSTWYSPGDMDLTPLHW: “inactive”; for TLLLAMNDVTSRLL: “inactive”.

Regarding YNAYLKENLILLYLCRSSRE, the amyloid nucleation score was found to be 2.17 ± 0.063. For GEMVFGVVWIVELETFCIPI, the amyloid nucleation score result was “inactive”. The result for VCNQS reads “inactive”; that for NMVSFWN, “inactive”; that for AVSRDCELYKVEYYLVQ, “inactive”. In turn, YLGIFWRFFLRFSRGVTVWL displayed an amyloid nucleation score of -0.488 ± 0.96. The same measure for CCFTLGAVSNCSLRGNSQTL: -1.2 ± 1.9; for DGLQSN: “inactive”. In turn, DLRGETNSYSGVCQERK had an amyloid nucleation score of 0.104 ± 0.69. As to FFLAFKEQPRAYLISISTH, the amyloid nucleation score result is “inactive”.

SSYAYMRVCAFKVVEMVYWR: the amyloid nucleation score entry was “inactive”. As to HLGYTVYSRTMRSSFVFRVL, the amyloid nucleation score result was “inactive”. MHFRTSDIPTTLELGLLGWP: the amyloid nucleation score was 0.096 ± 0.47.

Turning to LLCYWSLA, the amyloid nucleation score result is “inactive”. The result for QSLVPSFDPNLCQVGVLYCC reads -0.654 ± 0.84; that for EIVSWVDHFYWTWTGYHKCW, -0.886 ± 1. The result for IDDQLCQ reads “inactive”; that for GLLLVIFNGFGFNDYEEFGM, “inactive”. The same measure for SFDARCGWKLNMFYSCSFIQ: -0.009 ± 0.81; for AMVKEFWVDSRHFIDRYSKC: “inactive”. On to FMVMRVPRCPVDCNVPGGIN, for which the amyloid nucleation score result was “inactive”.

Regarding KYWDPQFP, the amyloid nucleation score entry was “inactive”.

The substance RCELCMSIKGLAVNNIR had an amyloid nucleation score of 1.9 ± 0.1. On to ELVGIIDGCLKNMSSFTMRV, for which the amyloid nucleation score result is “inactive”. As to KNSTWMSESVNNRFFIQVGA, the amyloid nucleation score entry is “inactive”. In the case of PTNLYCHRMGEVSVYCRNLR, the amyloid nucleation score entry is “inactive”. The result for LVVCKLRV reads “inactive”; that for RFVLQ, “inactive”; that for RSRKKRCFLKFILKNFVWSV, “inactive”. Take NTLKSV: the amyloid nucleation score entry was “inactive”.

Turning to RWLFRSWPGRRMA, the amyloid nucleation score entry is “inactive”.

Consider RYFNGPYLGRTVFEFT, for which the amyloid nucleation score entry was “inactive”. Consider HYTTASFDVDNPLRLLLLLQ, for which the amyloid nucleation score result is “inactive”. KMACTCAESTVIIS: the amyloid nucleation score result was “inactive”. The result for LSAAFYDMETIGWISGSWVN reads “inactive”. As to LRQNTYMLLSGNIVCRIVSF, the amyloid nucleation score entry is “inactive”. FMCNNRSILGICIFYDLRRN: the amyloid nucleation score was found to be 2.64 ± 0.081. With GIMVSWIVGFMLCSILRMGD, the amyloid nucleation score entry was “inactive”. As for GMAVVLSLAPAGRKRTTTNV, the amyloid nucleation score entry is “inactive”. Substance GSMSLIYYGLRRKVMGYVLS returned an amyloid nucleation score of 0.316 ± 0.7. Take KDSRSCLSFL: the amyloid nucleation score entry was “inactive”. VGFLWMQRVNEVDK: the amyloid nucleation score entry was “inactive”. The result for SGCERAWMAVCENRSSCILG reads “inactive”. The result for SKCVGISLRALVYYGHSQVT reads “inactive”; that for MMSTTKSRDNSIKDQLSGSS, “inactive”; that for TWATVTMVWCLNVNSVDTGL, 2.26 ± 0.094. Turning to FCEFDIDVVLCTHRLYCNRY, the amyloid nucleation score entry is “inactive”. The result for VHFKRVEKG reads “inactive”. In the case of SYYLRLYEVTWFSRFGFDRS, the amyloid nucleation score result is “inactive”. As for YTALL, the amyloid nucleation score entry was “inactive”.

For the substance IPFGLANSRFNVFASVMSDC, the amyloid nucleation score result was “inactive”. As for IKDGFQGNVFFAVDCFVAYD, the amyloid nucleation score result is “inactive”.

Consider LFDFADSMVRQVRTDAKRLN, for which the amyloid nucleation score entry is “inactive”. RCYVNYIRTYICAYCFAVNE returned an amyloid nucleation score of 2.39 ± 0.074. On to QCLQALNMKIVFDHVRFRVR, for which the amyloid nucleation score entry is “inactive”. Turning to FGCCKRCRHNRVSKEFSWSC, the amyloid nucleation score entry is “inactive”.

With VITVIFVSYYCIPVWYW, the amyloid nucleation score turned out to be 1.81 ± 0.099.

NFSCCLSCRQHMLAIFM yielded an amyloid nucleation score of 0.988 ± 0.13. On to PTKRYVKSYLISCVFIISHP, for which the amyloid nucleation score result is “inactive”.

As to IVRWGSQSGVYRMPIEAWKW, the amyloid nucleation score result was “inactive”.

For SPRAFTASVEGVSEL, the amyloid nucleation score entry is “inactive”. The result for SALEVFLWNKYLFVDVTLLL reads “inactive”; that for RLRVM, “inactive”; that for PSNMRG, 0.147 ± 0.34. The same measure for FFWVMISGVFLRRIHDSRSA: “inactive”; for MLDFICAVFSVKNWVGICFV: “inactive”. The result for HHYLTHNRLVIKHHYRKYYD reads “inactive”. On to GMVWFRFLKYAKC, for which the amyloid nucleation score was -1.54 ± 2.4. Consider VQGKALAS, for which the amyloid nucleation score entry was “inactive”. The result for YGFMCLVCIGTCDCKRSWQG reads 2.28 ± 0.086; that for VYNGSFWRVNLVNF, 1.09 ± 0.095. Take HRINWRIHTTYISTYWKKCM: the amyloid nucleation score result was “inactive”.

Regarding ILAHAHYVYVALARWPTYGY, the amyloid nucleation score was -0.35 ± 0.98. The substance IFILTMSDWVFL yielded an amyloid nucleation score of 1.91 ± 0.062. Consider ILRFGHPWDRRSK, for which the amyloid nucleation score result is “inactive”. The result for PLLLQWHHYNLLGRS reads 0.193 ± 0.69. The result for SVSPCSTHFLMSFERYVRGT reads “inactive”; that for VRSTFNCITLRTLAIRSFYH, “inactive”; that for MHLDYGC, “inactive”. The same measure for PSRRRMYADFHKATFPVRMG: “inactive”. As to ISGTFACQNSTFFSGYREAI, the amyloid nucleation score entry is “inactive”.

In the case of WRNENLPQSGRSMLVIFLLV, the amyloid nucleation score entry was “inactive”. Regarding HRCDAWYYRS, the amyloid nucleation score result is “inactive”.

Consider SLGLKIVVLESYGVSPVCCH, for which the amyloid nucleation score result is “inactive”.

Substance HFFMLGLYTSACHLESNYDC gave an amyloid nucleation score of 0.758 ± 0.1. For LRGFMISSWDFFADGSDVRL, the amyloid nucleation score result is “inactive”.

On to LDLDSNRFKVDLNDLYELVV, for which the amyloid nucleation score entry was “inactive”.

Regarding VNFILSTAHLL, the amyloid nucleation score result is “inactive”. The result for QCRYRRSST reads “inactive”; that for TRSFCVSK, “inactive”. In the case of VTVSYIVNGMTSLFQVDVAS, the amyloid nucleation score entry is “inactive”. On to KEADSVNDRLVNLLMHGTLC, for which the amyloid nucleation score entry is “inactive”. The same measure for SCDRVFNLDVNRWKLMRKTC: “inactive”; for MWVSAYWYNTCRYRFLSV: “inactive”. The result for GIVRSVCYVNGCVLDHEVGI reads “inactive”; that for YLLSMSENMRLALIECVAV, “inactive”; that for IGMMYVIGIYLIGGNYSIR, “inactive”. Take VYQGMYNKSAYC: the amyloid nucleation score entry was “inactive”.

For FVAVVSRDISNYSRGRSEKR, the amyloid nucleation score result is “inactive”.

For VKLSL, the amyloid nucleation score result was “inactive”. The same measure for GDTAPNSSTISLTVFFPLFA: 0.697 ± 0.21; for NRQFSDSLYRRACAMKEDCL: 0.643 ± 0.2; for VFFMNYGHVIVHFEKFFGGN: 2.6 ± 0.082. VCRRTGSKITFGQWKVYFSS: the amyloid nucleation score entry is “inactive”. The same measure for VLGYYAKGDRSSWSRGYSY: 0.194 ± 0.87; for LYDSSYMVDIDSYTLENCRS: “inactive”; for QWFHVSLS: “inactive”. The same measure for WLQGCRSRWAVVL: “inactive”; for GMRSSLNIDAFGSGAELMHW: “inactive”; for HVFCHVPNPCLVGSMLTLGD: “inactive”. The same measure for KWLMNSNFAWLI: “inactive”; for HKLAKTNRSSIIVCGNRVLL: 0.916 ± 0.11.

With YSNWLTSRNYTNLLLL, the amyloid nucleation score result was “inactive”. The result for PFWELYKDFSSICRLTQEGY reads “inactive”. The same measure for VFHRQERMLTPCT: “inactive”; for KIFYYTWYSLSYTIQLYGLQ: “inactive”.

Regarding FRYNDFMRD, the amyloid nucleation score entry was “inactive”. VCCSYY gave an amyloid nucleation score of 1.32 ± 0.11. Consider YTSGRSVSGRCHLWELKAIK, for which the amyloid nucleation score result is “inactive”. On to GCRNVVCVVDGFSVM, for which the amyloid nucleation score result is “inactive”. The result for TTMRCEIKSLYWIISQCWLD reads “inactive”; that for SVRLTIEMVTAVFRWGESMR, 0.233 ± 0.32.

On to FVSYRESKKDMQACCALCRS, for which the amyloid nucleation score was determined as 0.965 ± 0.11.

For the substance PTFCNQNFGNTFGCKRFYLS, the amyloid nucleation score entry was “inactive”.
